For the assay, the target named is His-tagged dog TROP2 protein (dog). Nature of the assay: SPR Biacore 8K, Ab on Protein A chip. For orientation: SPR reads the build-up and loss of mass on a sensor chip optically.

B1: DS-1062 analog-LALA (antibody, V domains shown)
VH: QVQLVQSGAEVKKPGASVKVSCKASGYTFTTAGMQWVRQAPGQGLEWMGWINTHSGVPKYAEDFKGRVTISADTSTSTAYLQLSSLKSEDTAVYYCARSGFGSSYWYFDVWGQGTLVTVSS
VL: DIQMTQSPSSLSASVGDRVTITCKASQDVSTAVAWYQQKPGKAPKLLIYSASYRYTGVPSRFSGSGSGTDFTLTISSLQPEDFAVYYCQQHYITPLTFGQGTKLEIKR
Turning to B1, the Kd (commonly the constant that tells how readily two partners part at equilibrium) was 27.2 nM, the koff (usually the first-order rate constant of dissociation) is 0.000812 s⁻¹ and the kon (usually the rate constant with which the complex forms) came out at 29900 M⁻¹ s⁻¹.

B2: Sacituzumab analog (antibody, V domains shown)
VH: QVQLQQSGSELKKPGASVKVSCKASGYTFTNYGMNWVKQAPGQGLKWMGWINTYTGEPTYTDDFKGRFAFSLDTSVSTAYLQISSLKADDTAVYFCARGGFGSSYWYFDVWGQGSLVTVSS
VL: DIQLTQSPSSLSASVGDRVSITCKASQDVSIAVAWYQQKPGKAPKLLIYSASYRYTGVPDRFSGSGSGTDFTLTISSLQPEDFAVYYCQQHYITPLTFGAGTKVEIKR
Regarding B2, the Kd is 42 nM, the koff stood at 0.00858 s⁻¹ and the kon worked out at 204000 M⁻¹ s⁻¹.

The values are drawn from patent US20260250421A1.
